Assay results as given in the DeepSol protein solubility set.

Experiment: soluble on expression in E. coli; label from the status in PepcDB or PDB records

Soluble on expression in E. coli, not soluble:
MKIRILGSGTSTGVPEIGCTCAVCTSKDPRDCRLRTSALVYTDDATILLDCGPDFREQMLRVPFGKIDAVLISHEHYDHVGGLDDLRPFCRFGEVPIYAETYTAERLRSRMPYCFVEHSYPGVPNIPLREIEPNRPFLVNHTEVLPLRVMHGKLPILGYRIGKLGYITDMLTMPDESFEQLQGIEVLVMNALRIAPHNTHQSLSEALEAVKRIGAKETWLIHMSHHIGLQADVEKQLPPHVHFAFDGLELECLEHHHHHH, MIFRSFFTHRIASMETKRLKLIPACLERAEEAHQAVVRSQKTLEVYLPWVPHVLTLEAMIEGTEKAIANFENFEEELRYYIIEK, MMKGSKSYTEYSSSFSTDEFGYDQNRSNSYNFNGPCINTDPEMKRKKRVASYNLFATEEKLKSTLKNSFKWIKNKFSGDDNSIRYNV, MANTLIVGAGWLGTPLAQALLVEGHDVVITRRSQARLDERPSTIANAALLDLNDENAAQKLDEIIQSNHIERIVGAFPPGFRRGSGREYAQQWSTLVKAAKQHAIEKLVMISSTTVYPNLPTDMKEESASLALVQTHPHFSDNAKIMLEAEQSVIDSGINYAILRCSGLFGPDRHPARFAMRLKQVSRKAPANMLHQSDAVAVAQFALDHLSNQIINVTTPHTVSKAEFYQAAITKSGAEISLPPVTEDADKRILADKLVSLGYQFRFNSTLDAL, MAHHHHHHMAPQSPSEWDNARRAAKRALTISDEYPPATVERIQKLLQRAETTSNDAVLLSELKSLVQSYFQSPQSLQFLRKERVASKGGGIGVVAARKIPAFSIIGVYPGYLDFMSGEQAKCGRPVPKYALMEYNCANYFNEVFVELQTTFTPFINEPNVDEKSNCAWIQEPHRKNGRLSVICVRDIQEGEELTIGYGPIYPRTYPYCYDAYACHQIEGHTTHPCYSLWHWPTLQEADARFVCHIGYIERDDCYVLWKNET, MISSGWMQEMEPIPEEGTEADGSEWGAMSDTAKRTMRKKEVYTSEQINTLVSTVPKEAVPQEWLVENQVVDPEMATSYLTESLAGPTSARGSSYSYSYESHYDNPPEEEYEHFTNDDGVHQMQKVTRVTKVTTTRSVRQVPVQSPYSNIDFDSSGLPTPSPVIDRDPSLEMMARMGGASDHDSEDRSAPPPAPASRFLHEDSGIPSAPGVPDVVDAGIGEVTVVWSAPLQSNGGEVRGYQIEMREFPDGEWESMGVDHLLKDTTCRVTNLTSHEVQFRVSAYGRTGFGPASNPSLPVKIPISETDLATSAGAPLAPGRPTVIAVDGQGVLLEWTPPVADVHSSPPQGYQVEYRVYGSRDWIVANEQLVQENVFTVESLRPNGVYEFRVRGKNQDGLGHPSMSSGGVAIRPAAPQRHVPARKVSESVQPPGQPQMVEVGDDVVKLEWAPSVQNARYIVEYREVGDPEWHTANYDPIVQNGIQVEGLHRNSTYEFCVISIVDNIASQPSETSDIIHLRPTCNTSALRPAPNILEAPEFLEVDGDKITICWLPAQSQLPVMGYDVEFRDLQQDDRWYKVNDQPVFACKMTVGDLIMDHDYQFRVLAHNASGCSQPSPPSDFVHIEPSTNRFSSDTMESPHLGHHDVVKYVEAERFGAVPLLQEEMVRESPPLPERDDSPPPLRRANNNVQWRDPSLKEVIEYLSSADKDKQLNASGYLQHLTYTDNQIKEETREYGGIPKLIALLRSDTPRIQKNACACLKNLSFGKENDANKLAVMEADGVRLIAEVLRTTHDASVKEEAAAALWNLSSADMLKPVILESATEILSQQVIAPVLAVGTSDPTRHFGSTLFKNSTGVLRNVSAASQQARRRLRDIPNLIEALVHFLTHAIQKSQVDSPTVENAVCLLRNLSYRIQEVVDPNYDPAAAHSSSSKNMKHVASPKPEKKKKDKEKKKDKNPKNIVTGPSVLWQPHVVKLYLKLLQDSSNIETLEASAGAIQNLAACQFPPSAEVRAAVRVEKGLPVLVELIRLPEDFVVCAVATALRNLAIDPRNRELIGKYALRDFLDKLPEPGSPRRSAISDQTIGAVLGILFEIVRSSAAYTKDVHELKGTDKLRALSRSYPTYSHRVCKYASQVLYVMWQHKELHDGFKRSGLKEADFYSGTARRGDSSTLARPISSQGRERPSMHQLDETLSSGGGYGTMESNNRAGTLRPASATSQTIQRRYDQVPRDGPVYSSVQKPSPRGGGGGGNIDDSWV

Soluble on expression in E. coli, soluble:
MPTNNAPQVAINDIGSAEDFLAAIDATIKYFNDGDIVEGTVVKVDRDEVLLDIGYKTEGVIPSRELSIKHDVDPDEVVEVGDQIDALVLTKEDKEGRLILSKKRAQYERAWGAIEELKEKDEPVTGTVIEVVKGGLIIDIGLRGFLPASLVEMRRVRDLDPYIGQELEAKIIELDKNRNNVVLSRRAFLEQTQSEVRSEFLHQLQKGQVRKGVVSSIVNFGAFVDLGGVDGLVHVSELSWKHIDHPSEVVTVGDEVTVEVLEVDLDRERVSLSLKATQEDPWRVFARTHAVGQIVPGKVTKLVPFGAFVRVEEGIEGLVHISELAQRHVEVPDQVVAVGEEVMVKVIDIDLERRRISLSLKQADEDYTEEFDPSKYGMADSYDEQGNYIFPEGFDAETNEWLEGFDEQRQAWEARYAESERRFTAHTAQIERRRQQAEEAAAEAPAGNYSTDSAEDAPAAEAVEESAGSLASDEQLAALREKLAGNLEHHHHHH, AHHHHHHHRSDAAVIVVGAGPAGMMLAGELRLAGVEVVVLERLVERTGESRGLGFTARTMEVFDQRGILPRFGEVETSTQGHFGGLPIDFGVLEGAWQAAKTVPQSVTETHLEQWATGLGADIRRGHEVLSLTDDGAGVTVEVRGPEGKHTLRAAYLVGCDGGRSSVRKAAGFDFPGTAATMEMYLADIKGVELQPRMIGETLPGGMVMVGPLPGGITRIIVCERGTPPQRRETPPSWHEVADAWKRLTGDDIAHAEPVWVSAFGNATRQVTEYRRGRVILAGDSAHIHLPAGGQGMNTSIQDAVNLGWKLGAVVNGTATEELLDSYHSERHAVGKRLLMNTQAQGLLFLSGPEVQPLRDVLTELIQYGEVARHLAGMVSGLEITYDVGTGSHPLLGKRMPALELTTATRETSSTELLHTARGVLLDLADNPRLRARAAAWSDRVDIVTAVPGEVSATSGLRDTTAVLIRPDGHVAWAAPGSHHDLPMALERWFGAPLTG, MSLTEAGDSEGEQSYFVSTPDEYPGGHDREDDGSVYGQIHIEEESTIRYSWQDEIAQGTWRRKMRGDVGGEKPVKVLEVPALSLGGAIGSAHLKEEASGELRAEPTVIEKEIKIPHEFHTSIKGVFSSEPRHQLVEVIGQLEETLPERMKEELSALTRQSQGESGSVSVDVKKVQSAAGGSVTLMAEVNLSQTVDADQLDLEQLSRDEAGEIERAVESVVRESLAKRSSPVPRSEGHHHHHH, MSSQISEIEQEQLIEKLEIFKIHGRDKRGRKILRIIGKFFPARFLSLDVLKKYLEEKIFPRLGRKPFAVLYVHTGVQRSENFPGISALRAIYDAIPVNVRDNLQEVYFLHPGLQSRLFLATCGRFLFSGGLYGKLRYISRVDYLWEHVRRNEIEMPEFVYDHDDDLEYRPMMDYGQESDHARVFAGAAVDSSVSSFSMRCIS, DSDDRVTPPAEPLDRMPDPYRPSYGRAETVVNNYIRKWQQVYSHRDGRKQQMTEEQREWLSYGCVGVTWVNSGQYPTNRLAFASFDEDRFKNELKNGRPRSGETRAEFEGRVAKESFDEEKGFQRAREVASVMNRALENAHDESAYLDNLKKELANGNDALRNEDARSPFYSALRNTPSFKERNGGNHDPSRMKAVIYSKHFWSGQDRSSSADKRKYGDPDAFRPAPGTGLVDMSRDRNIPRSPTSPGEGFVNFDYGWFGAQTEADADKTVWTHGNHYHAPNGSLGAMHVYESKFRNWSEGYSDFDRGAYVITFIPKSWNTAPDKVKQGWP, MAHHHHHHMKYLTFNRSNKDAIDLCERLEATKIDLANPLLLQYSWVIWEQVSDNKIKQSNNYKDYTRPLAKFNSVQKFWQLWNRLPQPSDLLAQKSMTRLSEDGTLRIIDALMIFRDNIQPMWEDPANAEGGHFEYKFVPRDFPYSQIDEFWNNLVLAIIGCTLKHYNLITGIRLVDKLSTTRHGYVRIEIWYTTVPDESVRNHLRKDLEEHMCNRIDGSHVYPPRGKNFSHSHK, MKTIYLYKAQIPEGKNKGDNAILITNQTVIDKLEKAAKEDGKSGTQVSTIASKSTTKENQENKIIGYTSTDNLREDNKNIFDIDDLNDEKYDRKIIVSATEEVLEQSNTLQSEEAVVLPAPAKYKASDSTKIAITQEPNLIGIHANEKENEETRKFVNW, KDFLAMFSPKCGGCNRPVLENYLSAMDTVWHPECFVCGDCFTSFSTGSFFELDGRPFCELHYHHRRG
